Starred links: 1 amine or outer side, 2 acyl side, 3 side chain; linkers in the order of their positions; H or OH if unused. Positions of bridges follow the written chain, without caps; N, C: chain ends. Non-standard residues stand in square brackets, D forms with d. Primed or numbered codes have the meaning given here. B5(17) = 2,2-bis(4-pentenyl)glycine = 2-amino-2-(pent-4-en-1-yl)hept-6-enoic acid, stitching residue, C=CCCCC(CCCC=C)(N[*:1])C(=O)[*:2]; B5(4) = 2,2-bis(4-pentenyl)glycine = 2-amino-2-(pent-4-en-1-yl)hept-6-enoic acid (stitching residue), C=CCCCC(CCCC=C)(N[*:1])C(=O)[*:2]; B5(5) = 2,2-bis(4-pentenyl)glycine, 2-amino-2-(pent-4-en-1-yl)hept-6-enoic acid (stitching residue), C=CCCCC(CCCC=C)(N[*:1])C(=O)[*:2]; B5(21) = 2-amino-2-(pent-4-en-1-yl)hept-6-enoic acid, bis(4-pentenyl)glycine (stitching residue), C=CCCCC(CCCC=C)(N[*:1])C(=O)[*:2]; (NHCyBu)AsnR = N4-cyclobutyl-L-asparagine, O=C(C[C@H](N[*:1])C(=O)[*:2])NC1CCC1; (NHCyPr)AsnR = N4-cyclopropyl-L-asparagine, O=C(C[C@H](N[*:1])C(=O)[*:2])NC1CC1; (NHnPr)AsnR = N4-propyl-L-asparagine, CCCNC(=O)C[C@H](N[*:1])C(=O)[*:2]; (NHMe)AsnR = N4-methyl-L-asparagine, CNC(=O)C[C@H](N[*:1])C(=O)[*:2]; TOMe = O-methyl-L-threonine, CO[C@H](C)[C@H](N[*:1])C(=O)[*:2]; Phe(3-CF3) = N[C@@H](Cc1cccc(C(F)(F)F)c1)C(=O)O; Bta = N[C@@H](Cc1csc2ccccc12)C(=O)O; αAllylPro = C=CC[C@@]1(C(=O)O)CCCN1; S8 = C=CCCCCCC[C@](C)(N)C(=O)O
T1: full-length beta-Catenin (Uniprot ID P35222) (Homo sapiens (Human), UniProt P35222 1-781)
T1 construct: also called bCat; B-Catenin
T1 sequence: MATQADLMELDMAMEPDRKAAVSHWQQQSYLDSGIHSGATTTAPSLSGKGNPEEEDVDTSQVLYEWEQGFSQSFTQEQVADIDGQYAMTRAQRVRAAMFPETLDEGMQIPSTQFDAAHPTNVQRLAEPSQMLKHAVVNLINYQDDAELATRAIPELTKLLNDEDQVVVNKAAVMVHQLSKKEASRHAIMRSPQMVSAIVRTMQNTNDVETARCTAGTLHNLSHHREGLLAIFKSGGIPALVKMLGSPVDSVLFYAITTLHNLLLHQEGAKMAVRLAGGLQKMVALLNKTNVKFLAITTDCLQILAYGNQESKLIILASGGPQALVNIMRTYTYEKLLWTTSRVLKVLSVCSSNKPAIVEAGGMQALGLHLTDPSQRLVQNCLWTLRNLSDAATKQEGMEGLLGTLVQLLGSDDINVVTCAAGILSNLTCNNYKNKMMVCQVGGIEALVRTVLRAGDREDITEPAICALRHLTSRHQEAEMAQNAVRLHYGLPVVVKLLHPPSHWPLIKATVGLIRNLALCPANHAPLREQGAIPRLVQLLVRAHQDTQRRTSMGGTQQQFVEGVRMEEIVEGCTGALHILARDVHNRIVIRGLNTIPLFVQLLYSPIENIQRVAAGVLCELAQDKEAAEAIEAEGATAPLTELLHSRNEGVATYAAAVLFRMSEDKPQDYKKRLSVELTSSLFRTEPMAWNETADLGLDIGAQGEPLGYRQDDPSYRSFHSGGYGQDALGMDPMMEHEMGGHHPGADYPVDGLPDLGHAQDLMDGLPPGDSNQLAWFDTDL

T2: full-length beta-Catenin (Uniprot ID P35222) (Homo sapiens (Human), UniProt P35222 1-781)
T2 construct: also called bCat; B-Catenin
T2 sequence: T1 sequence

B1: I-373 (peptide)
peptide: Ac-[αAllylPro]DA[B5(4)]DDAA[Phe(3-CF3)]V[S8]F[Bta]Q-NH2
modifications: staple 1-4, 4-11
notes: Stapled peptide composition (olefin metathesis)
B2: I-563 (peptide)
peptide: XDLXDDAAFNXFXQ
modifications: not fully specified; Ac-PL3-Asp-Leu-B5-Asp-Asp-Ala-Ala-Phe-Asn-S8-Phe-BztA-Gln-NH2; N-terminal acetyl, C-terminal amide; non-natural: PL3(1), B5(4), S8(11), BztA(13); staples PL3(1)-B5(4) and B5(4)-S8(11)
B3: I-542 (peptide)
peptide: XDTXDEAAFQXFXQ
modifications: not fully specified; Ac-PL3-Asp-TOMe-B5-Asp-Glu-Ala-Ala-Phe-Gln-S8-Phe-BztA-Gln-NH2; N-terminal acetyl, C-terminal amide; non-natural: PL3(1), TOMe(3), B5(4), S8(11), BztA(13); staples PL3(1)-B5(4) and B5(4)-S8(11)
B4: I-561 (peptide)
peptide: XDLXDDAAFQXFXH
modifications: not fully specified; Ac-PL3-Asp-Leu-B5-Asp-Asp-Ala-Ala-Phe-Gln-S8-Phe-BztA-His-NH2; N-terminal acetyl, C-terminal amide; non-natural: PL3(1), B5(4), S8(11), BztA(13); staples PL3(1)-B5(4) and B5(4)-S8(11)
B5: I-565 (peptide)
peptide: XDLXDDAAFNXFXH
modifications: not fully specified; Ac-PL3-Asp-Leu-B5-Asp-Asp-Ala-Ala-Phe-Asn-S8-Phe-BztA-His-NH2; N-terminal acetyl, C-terminal amide; non-natural: PL3(1), B5(4), S8(11), BztA(13); staples PL3(1)-B5(4) and B5(4)-S8(11)
B6: I-566 (peptide)
peptide: XDVXDDAAFNXFXQ
modifications: not fully specified; Ac-PL3-Asp-Val-B5-Asp-Asp-Ala-Ala-Phe-Asn-S8-Phe-BztA-Gln-NH2; N-terminal acetyl, C-terminal amide; non-natural: PL3(1), B5(4), S8(11), BztA(13); staples PL3(1)-B5(4) and B5(4)-S8(11)
B7: I-558 (peptide)
peptide: XDLXDDAAFQXFXQ
modifications: not fully specified; Ac-PL3-Asp-Leu-B5-Asp-Asp-Ala-Ala-Phe-Gln-S8-Phe-BztA-Gln-NH2; N-terminal acetyl, C-terminal amide; non-natural: PL3(1), B5(4), S8(11), BztA(13); staples PL3(1)-B5(4) and B5(4)-S8(11)
B8: I-553 (peptide)
peptide: XDIXDDAAFNXFXH
modifications: not fully specified; Ac-PL3-Asp-Ile-B5-Asp-Asp-Ala-Ala-Phe-Asn-S8-2OMeF-BztA-His-NH2; N-terminal acetyl, C-terminal amide; non-natural: PL3(1), B5(4), S8(11), 2OMeF(12), BztA(13); staples PL3(1)-B5(4) and B5(4)-S8(11)
B9: I-549 (peptide)
peptide: XDIXDDAAFNXFXQ
modifications: not fully specified; Ac-PL3-Asp-Ile-B5-Asp-Asp-Ala-Ala-Phe-Asn-S8-2OMeF-BztA-Gln-NH2; N-terminal acetyl, C-terminal amide; non-natural: PL3(1), B5(4), S8(11), 2OMeF(12), BztA(13); staples PL3(1)-B5(4) and B5(4)-S8(11)
B10: I-559 (peptide)
peptide: XDLXDDAAFQXFXQ
modifications: not fully specified; Ac-PL3-Asp-Leu-B5-Asp-Asp-Ala-Ala-Phe-Gln-S8-Phe-BztA-Gln-NH2; N-terminal acetyl, C-terminal amide; non-natural: PL3(1), B5(4), S8(11), BztA(13); staples PL3(1)-B5(4) and B5(4)-S8(11)
B11: I-554 (peptide)
peptide: XDIXDDAAFNXFXH
modifications: not fully specified; Ac-PL3-Asp-Ile-B5-Asp-Asp-Ala-Ala-Phe-Asn-S8-2OMeF-BztA-His-NH2; N-terminal acetyl, C-terminal amide; non-natural: PL3(1), B5(4), S8(11), 2OMeF(12), BztA(13); staples PL3(1)-B5(4) and B5(4)-S8(11)
B12: I-550 (peptide)
peptide: XDIXDDAAFNXFXQ
modifications: not fully specified; Ac-PL3-Asp-Ile-B5-Asp-Asp-Ala-Ala-Phe-Asn-S8-2OMeF-BztA-Gln-NH2; N-terminal acetyl, C-terminal amide; non-natural: PL3(1), B5(4), S8(11), 2OMeF(12), BztA(13); staples PL3(1)-B5(4) and B5(4)-S8(11)

Molecular target: T1, full-length beta-Catenin (Uniprot ID …)
Experiment: fluorescence polarization competition; 10 nM full-length beta-catenin, competitor 10 nM 5FAM-TCF4(10-53)
Protocol: (§1) The plate was incubated protected from light for 60 minutes at 20° C. prior to read. Reads were performed on a CLARIOstar plate reader (BMG Labtech) in duplicate, and data were fitted to a 1:1 binding model with hill slope using an in-house script. All provided concentrations are final concentrations.

B1 was tested. Which EC50 did it give?
Its EC50 is 945 nM.

Molecular target: T2, full-length beta-Catenin (Uniprot ID …)
Experiment: fluorescence polarization competition; displacement of 5FAM-TCF4(10-53) from full-length beta-catenin
Protocol: as §1

Which EC50 does the source give for B2 here?
Its EC50 is 19 nM.

Ac-[αAllylPro]DA[B5(21)][(NHCyBu)AsnR]DAAFV[S8]F[Bta]Q-NH2 (staple 1-4, 4-11, Stapled (stitched) peptide composition) [I-539] was tested. Which EC50 did it give?
Its EC50 is 5000 nM.

Which EC50 does the source give for B3 here?
The EC50 was 109 nM.

For Ac-[αAllylPro]DA[B5(21)][(NHCyPr)AsnR]DAAFV[S8]F[Bta]Q-NH2 (staple 1-4, 4-11, Stapled (stitched) peptide composition) [I-538], which EC50 is on record?
The EC50 was 5000 nM.

For Ac-[αAllylPro]DA[B5(21)][(NHnPr)AsnR]DAAFV[S8]F[Bta]Q-NH2 (staple 1-4, 4-11, Stapled (stitched) peptide composition) [I-537], which EC50 is on record?
The EC50 was 5000 nM.

How did the EC50 turn out when Ac-[αAllylPro]DL[B5(5)]DDAAFN[S8]F[Bta]Q-NH2 (staple 1-4, 4-11) [I-562] was run?
Its EC50 is 51 nM.

For B4, which EC50 is on record?
Its EC50 is 34 nM.

Which EC50 does the source give for B5 here?
The EC50 was 13 nM.

With B6 as the binder, how does the EC50 read?
Its EC50 is 76 nM.

With B7 as the binder, how does the EC50 read?
The EC50 was 56 nM.

B8 was tested. Which EC50 did it give?
The EC50 was 61 nM.

How did the EC50 turn out when Ac-[αAllylPro]DI[B5(17)]DEAAFN[S8]F[Bta]Q-NH2 (staple 1-4, 4-11, Stapled (stitched) peptide composition) [I-557] was run?
The EC50 was 35 nM.

With Ac-[αAllylPro]DL[B5(5)]DDAAFQ[S8]F[Bta]H-NH2 (staple 1-4, 4-11) [I-560] as the binder, how does the EC50 read?
Its EC50 is 81 nM.

For B9, which EC50 is on record?
Its EC50 is 71 nM.

Which EC50 does the source give for Ac-[αAllylPro]DL[B5(5)]DDAAFN[S8]F[Bta]H-NH2 (staple 1-4, 4-11) [I-564] here?
The EC50 was 36 nM.

B10 was tested. Which EC50 did it give?
The EC50 was 43 nM.

Ac-[αAllylPro]DL[B5(4)]DEAAFN[S8]F[Bta]H-NH2 (staple 1-4, 4-11, Stapled (stitched) peptide composition) [I-543] was tested. Which EC50 did it give?
The EC50 was 32 nM.

For B11, which EC50 is on record?
The EC50 was 27.5 nM.

For B12, which EC50 is on record?
Its EC50 is 30 nM.

Ac-[αAllylPro]D[TOMe][B5(21)]DEAAFQ[S8]F[Bta]Q-NH2 (staple 1-4, 4-11) [I-541] was tested. Which EC50 did it give?
Its EC50 is 180 nM.

For Ac-[αAllylPro]DA[B5(21)][(NHMe)AsnR]DAAFV[S8]F[Bta]Q-NH2 (staple 1-4, 4-11, Stapled (stitched) peptide composition) [I-540], which EC50 is on record?
Its EC50 is 5000 nM.

From US20240116985A1 (published 2024)
